{"source": "the Human Domainome abundance scans (Beltran et al. 2025)", "parents": {"B1": {"name": "Homeobox protein SIX3, residues 212 to 262; numbered along this chain, O95343 (parent)", "chain": "CFKERTRSLLREWYLQDPYPNPSKKRELAQATGLTPTQVGNWFKNRRQRDR"}}, "note": "± gives the uncertainty stated by the source."}
{"variants_of": "B1", "test": "abundance fitness (aPCA) (normalised: wild type 0, dead -1); higher = more abundant; growth selection in yeast, the domain comes from the species named", "settings": "Homo sapiens"}
{"variant": "CFKERTRSLLREWCLQDPYPNPSKKRELAQATGLTPTQVGNWFKNRRQRDR", "abundance fitness": "-0.822 ± 0.17"}
{"variant": "CFKERTRSLLREWHLQDPYPNPSKKRELAQATGLTPTQVGNWFKNRRQRDR", "abundance fitness": "-0.951 ± 0.1"}
{"variant": "CFKERTRSLLREWSLQDPYPNPSKKRELAQATGLTPTQVGNWFKNRRQRDR", "abundance fitness": "-0.667 ± 0.066"}
{"variant": "CFKERTRSLLREWRLQDPYPNPSKKRELAQATGLTPTQVGNWFKNRRQRDR", "abundance fitness": "-0.849 ± 0.075"}
{"variant": "CFKERTRSLLREWELQDPYPNPSKKRELAQATGLTPTQVGNWFKNRRQRDR", "abundance fitness": "-0.893 ± 0.1"}
{"variant": "CFKERTRSLLREWNLQDPYPNPSKKRELAQATGLTPTQVGNWFKNRRQRDR", "abundance fitness": "-0.734 ± 0.16"}
{"variant": "CFKERTRSLLREWILQDPYPNPSKKRELAQATGLTPTQVGNWFKNRRQRDR", "abundance fitness": "-0.746 ± 0.076"}
{"variant": "CFKERTRSLLREWFLQDPYPNPSKKRELAQATGLTPTQVGNWFKNRRQRDR", "abundance fitness": "-0.294 ± 0.091"}
{"variant": "CFKERTRSLLREWLLQDPYPNPSKKRELAQATGLTPTQVGNWFKNRRQRDR", "abundance fitness": "-0.828 ± 0.056"}
{"variant": "CFKERTRSLLREWYLQDVYPNPSKKRELAQATGLTPTQVGNWFKNRRQRDR", "abundance fitness": "-0.687 ± 0.062"}
{"variant": "CFKERTRSLLREWYLQDKYPNPSKKRELAQATGLTPTQVGNWFKNRRQRDR", "abundance fitness": "-0.136 ± 0.095"}
{"variant": "CFKERTRSLLREWYLQDGYPNPSKKRELAQATGLTPTQVGNWFKNRRQRDR", "abundance fitness": "-0.906 ± 0.085"}
{"variant": "CFKERTRSLLREWYLQDAYPNPSKKRELAQATGLTPTQVGNWFKNRRQRDR", "abundance fitness": "-0.226 ± 0.049"}
{"variant": "CFKERTRSLLREWYLQDCYPNPSKKRELAQATGLTPTQVGNWFKNRRQRDR", "abundance fitness": "-0.032 ± 0.082"}
{"variant": "CFKERTRSLLREWYLQDLYPNPSKKRELAQATGLTPTQVGNWFKNRRQRDR", "abundance fitness": "-0.903 ± 0.17"}
{"variant": "CFKERTRSLLREWYLQDRYPNPSKKRELAQATGLTPTQVGNWFKNRRQRDR", "abundance fitness": "-0.182 ± 0.062"}
{"variant": "CFKERTRSLLREWYLQDHYPNPSKKRELAQATGLTPTQVGNWFKNRRQRDR", "abundance fitness": "-0.028 ± 0.17"}
{"variant": "CFKERTRSLLREWYLQDTYPNPSKKRELAQATGLTPTQVGNWFKNRRQRDR", "abundance fitness": "-0.629 ± 0.14"}
{"variant": "CFKERTRSLLREWYLQDIYPNPSKKRELAQATGLTPTQVGNWFKNRRQRDR", "abundance fitness": "-0.487 ± 0.13"}
{"variant": "CFKERTRSLLREWYLQDSYPNPSKKRELAQATGLTPTQVGNWFKNRRQRDR", "abundance fitness": "-0.474 ± 0.055"}
{"variant": "CFKERTRSLLREWYLQDQYPNPSKKRELAQATGLTPTQVGNWFKNRRQRDR", "abundance fitness": "-0.286 ± 0.18"}
{"variant": "CFKERTRSLLREWYLQDEYPNPSKKRELAQATGLTPTQVGNWFKNRRQRDR", "abundance fitness": "-0.717 ± 0.13"}
{"variant": "CFKERTRSLLREWYLQDMYPNPSKKRELAQATGLTPTQVGNWFKNRRQRDR", "abundance fitness": "-0.501 ± 0.11"}
{"variant": "CFKERTRSLLREWYLQDFYPNPSKKRELAQATGLTPTQVGNWFKNRRQRDR", "abundance fitness": "-0.672 ± 0.17"}
{"variant": "CFKERTRSLLREWYQQDPYPNPSKKRELAQATGLTPTQVGNWFKNRRQRDR", "abundance fitness": "0.08 ± 0.07"}
{"variant": "CFKERTRSLLREWYVQDPYPNPSKKRELAQATGLTPTQVGNWFKNRRQRDR", "abundance fitness": "-0.22 ± 0.24"}
{"variant": "CFKERTRSLLREWYSQDPYPNPSKKRELAQATGLTPTQVGNWFKNRRQRDR", "abundance fitness": "-0.568 ± 0.32"}
{"variant": "CFKERTRSLLREWYWQDPYPNPSKKRELAQATGLTPTQVGNWFKNRRQRDR", "abundance fitness": "-0.551 ± 0.35"}
{"variant": "CFKERTRSLLREWYMQDPYPNPSKKRELAQATGLTPTQVGNWFKNRRQRDR", "abundance fitness": "-0.309 ± 0.2"}
{"variant": "CFKERTRSLLREWYCQDPYPNPSKKRELAQATGLTPTQVGNWFKNRRQRDR", "abundance fitness": "0.756 ± 0.27"}
{"variant": "CFKERTRSLLREWYRQDPYPNPSKKRELAQATGLTPTQVGNWFKNRRQRDR", "abundance fitness": "0.145 ± 0.1"}
{"variant": "CFKERTRSLLREWYEQDPYPNPSKKRELAQATGLTPTQVGNWFKNRRQRDR", "abundance fitness": "-0.091 ± 0.16"}
{"variant": "CFKERTRSLLREWYDQDPYPNPSKKRELAQATGLTPTQVGNWFKNRRQRDR", "abundance fitness": "0.114 ± 0.11"}
{"variant": "CFKERTRSLLREWYAQDPYPNPSKKRELAQATGLTPTQVGNWFKNRRQRDR", "abundance fitness": "0.358 ± 0.093"}
{"variant": "CFKERTRSLLREWYLQTPYPNPSKKRELAQATGLTPTQVGNWFKNRRQRDR", "abundance fitness": "-0.844 ± 0.061"}
{"variant": "CFKERTRSLLREWYLQQPYPNPSKKRELAQATGLTPTQVGNWFKNRRQRDR", "abundance fitness": "-0.814 ± 0.18"}
{"variant": "CFKERTRSLLREWYLQSPYPNPSKKRELAQATGLTPTQVGNWFKNRRQRDR", "abundance fitness": "-0.627 ± 0.07"}
{"variant": "CFKERTRSLLREWYLQNPYPNPSKKRELAQATGLTPTQVGNWFKNRRQRDR", "abundance fitness": "-0.599 ± 0.097"}
{"variant": "CFKERTRSLLREWYLQRPYPNPSKKRELAQATGLTPTQVGNWFKNRRQRDR", "abundance fitness": "-0.907 ± 0.13"}
{"variant": "CFKERTRSLLREWYLQHPYPNPSKKRELAQATGLTPTQVGNWFKNRRQRDR", "abundance fitness": "-1.04 ± 0.23"}
{"variant": "CFKERTRSLLREWYLQIPYPNPSKKRELAQATGLTPTQVGNWFKNRRQRDR", "abundance fitness": "-0.927 ± 0.38"}
{"variant": "CFKERTRSLLREWYLQCPYPNPSKKRELAQATGLTPTQVGNWFKNRRQRDR", "abundance fitness": "-0.78 ± 0.27"}
{"variant": "CFKERTRSLLREWYLQKPYPNPSKKRELAQATGLTPTQVGNWFKNRRQRDR", "abundance fitness": "-0.665 ± 0.12"}
{"variant": "CFKERTRSLLREWYLQPPYPNPSKKRELAQATGLTPTQVGNWFKNRRQRDR", "abundance fitness": "-0.753 ± 0.19"}
{"variant": "CFKERTRSLLREWYLQEPYPNPSKKRELAQATGLTPTQVGNWFKNRRQRDR", "abundance fitness": "-0.204 ± 0.078"}
{"variant": "CFKERTRSLLREWYLQFPYPNPSKKRELAQATGLTPTQVGNWFKNRRQRDR", "abundance fitness": "-0.82 ± 0.39"}
{"variant": "CFKERTRSLLREWYLQGPYPNPSKKRELAQATGLTPTQVGNWFKNRRQRDR", "abundance fitness": "-0.834 ± 0.067"}
{"variant": "CFKERTRSLLREWYLQVPYPNPSKKRELAQATGLTPTQVGNWFKNRRQRDR", "abundance fitness": "-0.878 ± 0.11"}
{"variant": "CFKERTRSLLREWYLQAPYPNPSKKRELAQATGLTPTQVGNWFKNRRQRDR", "abundance fitness": "-0.89 ± 0.14"}
{"variant": "CFKERTRSLLREWYLQMPYPNPSKKRELAQATGLTPTQVGNWFKNRRQRDR", "abundance fitness": "-0.81 ± 0.14"}
{"variant": "CFKERTRSLLREWYLQYPYPNPSKKRELAQATGLTPTQVGNWFKNRRQRDR", "abundance fitness": "-1 ± 0.41"}
